Experimental data as given in PMC12637205, “A natural allele of the transcription factor gene TaMYB-D7b is a genetic signature for phosphorus deficiency in wheat”.

Molecular target: TaMYB-D7b (2174 allele, Gly-50) (Triticum aestivum cv. 2174, UniProt A0A410P7J2)
Experiment: EMSA; EMSA: 100 fmol biotin probe, 1 ug protein, 20 uL, 1x binding buffer, 2.5% glycerol, 5 mM MgCl2, 1 ug poly(dI-dC), room temperature 30 min; pH and salt not given
Conditions: protein: recombinant; tags: His (pET32a vector); label: 5'-biotin

Chain of TaMYB-D7b (2174 allele, Gly-50) (A0A410P7J2 entry or part of it): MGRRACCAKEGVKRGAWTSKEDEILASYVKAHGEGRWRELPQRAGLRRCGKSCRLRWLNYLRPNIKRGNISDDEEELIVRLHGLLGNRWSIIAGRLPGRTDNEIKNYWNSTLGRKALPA

B1: TaCHSL-A2 promoter probe (27 bp) (dsDNA)
DNA 1: TGCAAAGAAAACCAACCAACACTTACC
DNA 2: GGTAAGTGTTGGTTGGTTTTCTTTGCA
binding result: binds
